The data set concerns T1, LigR (Novosphingobium aromaticivorans DSM 12444), ORF:c1f1f590.
T1 sequence: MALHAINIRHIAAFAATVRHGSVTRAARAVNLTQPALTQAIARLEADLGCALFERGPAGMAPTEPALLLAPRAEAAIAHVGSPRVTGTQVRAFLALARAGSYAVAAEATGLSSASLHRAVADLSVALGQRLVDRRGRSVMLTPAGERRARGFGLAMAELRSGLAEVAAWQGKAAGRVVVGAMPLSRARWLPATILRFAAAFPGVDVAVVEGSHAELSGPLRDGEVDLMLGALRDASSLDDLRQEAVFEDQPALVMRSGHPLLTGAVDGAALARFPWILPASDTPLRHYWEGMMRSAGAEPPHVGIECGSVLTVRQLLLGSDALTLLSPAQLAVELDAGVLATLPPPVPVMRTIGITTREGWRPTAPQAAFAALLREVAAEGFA
The experiment in a line: EMSA. As to conditions: EMSA: 20 nM DNA, 50 mM Tris-HCl, 20 mM HEPES, 1 mM EDTA, 1 mM DTT, 100 mM NaCl, 10% glycerol, pH not stated, room temperature 30 min, gel at 4 C; DNase I …. For orientation: A gel shift assay detects complexes by their altered migration in electrophoresis.
Take “CGATCTGAAGTGCTCAACGTGCAAAGCCTGCACAAAATGACAGGTCGTGCCGGCATCTCAATCGCCTGTTGCTTCCCCTTCTGCTGATTGCTATAAATCATAACAGATTGGGAGAGAGTCATGCAGTTTGAACGCATCAATCCGATGACCGGCGCCGTCGCCTCGCAGGCAGAGGCCATGAAAGCGTCGGACATTCCTTC (double strand) [ligV upstream EMSA fragment]”: the binding result is “no binding”. Under “GCCTTCTGCTTCTCGCGCCACTCGTCGTGCGCCTTCGGCAGCACGGTGTAGTGACCGTGGCAGTCGATGATCATGGTCATGCGACTTCAGTCCTCTCAAGTTTGAACTCTATGGTCTTGCCCGCCTGCTCGCGCTGGCGCCTCACCGTCCCGCCGGTCATCACCGGCTCGACGCCCAGCGATTCCAGCGTCTTGGCTGAC (double strand) [ligJ upstream EMSA fragment]” stands “no binding”. Under “ATGCCCAGGCCGATGCCGCTGGCGCCGCCCGTCACGAAAGCCGTCTTGCCCGGCAGATTCTGCATCGATCCTCTCCTTTGGTGCCTTGCCGGCAGCCATCGACCGGCGCCGGGAATCATTTTTCGCCTTTTGTATTCACCAGCGAGGAATTGTATGCAAGACTAACAATATTGCTGCTTCGACAAGGCCCGCCGAAATGGGTCGCCGCAGCGGGA (double strand) [ligN upstream EMSA fragment]” stands “no binding”. Under “CAAAGGTCGACCCGGCCTCACCGAAGCCGATCAGGGCGATTGTGAACTCAGGAACGCTCTCCATGGCAGCGGTCCTGCGTCGGCCGCGCCAAAGGAACAAATGCAAACATCGCCCAAGGTATAAATTTATGCAAAGCCTTCTGCGGCCACTTCGCGCAGGAGGGCCGCGAAGGCCGCCTGCGGCGCGGTCGGCCGCCAAC (double strand) [SARO_RS14280 promoter EMSA fragment]” stands “binds”. Turning to “GGACGACGATACCCGACATTTCCGGCTCCCGATGAAAGATCTTCGCGCGTTCCATGGAACTGCGGACCGCAGGGAACCAATGCATTGTTTGCCCCGGCCCATAAGGAAATGCTAAGTGATCAGGCATGGCCCTGCACGCGATCAACATCAGGCACATCGCCGCCTTCGCCGCAACGGTGCGCCACGGCAGCGTGACGCGG (double strand) [ligK promoter EMSA fragment]”, the binding entry is given as “binds”.

The values are drawn from article PMC12710314.
